Molecular target: T1, α and γ ENaC (Rattus norvegicus, UniProt P37089+P37090+P37091)
T1 construct: expressed in transfected cells; host or cells: Xenopus oocytes (cRNA injection; with or without V5-SPLUNC1 and CAP2)
T1 sequence (P37089 1-698): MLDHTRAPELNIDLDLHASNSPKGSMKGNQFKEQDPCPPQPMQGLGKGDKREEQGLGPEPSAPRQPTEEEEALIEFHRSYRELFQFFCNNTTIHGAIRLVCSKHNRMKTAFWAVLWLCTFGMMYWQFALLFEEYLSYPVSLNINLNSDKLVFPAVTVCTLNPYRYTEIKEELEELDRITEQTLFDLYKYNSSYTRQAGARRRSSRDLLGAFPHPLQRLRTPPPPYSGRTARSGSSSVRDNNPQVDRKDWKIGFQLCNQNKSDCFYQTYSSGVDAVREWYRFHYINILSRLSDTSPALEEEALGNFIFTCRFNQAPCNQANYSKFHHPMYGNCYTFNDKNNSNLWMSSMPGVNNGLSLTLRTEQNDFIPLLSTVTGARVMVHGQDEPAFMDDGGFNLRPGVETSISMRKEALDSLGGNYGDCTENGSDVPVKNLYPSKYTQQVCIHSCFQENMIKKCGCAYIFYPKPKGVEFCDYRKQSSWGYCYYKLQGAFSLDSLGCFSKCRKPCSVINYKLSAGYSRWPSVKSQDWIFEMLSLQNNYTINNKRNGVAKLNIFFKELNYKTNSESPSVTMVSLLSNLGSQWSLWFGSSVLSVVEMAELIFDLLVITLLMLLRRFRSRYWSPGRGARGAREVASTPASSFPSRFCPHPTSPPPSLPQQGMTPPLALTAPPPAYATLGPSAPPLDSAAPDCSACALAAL
T1 sequence (P37090 1-638): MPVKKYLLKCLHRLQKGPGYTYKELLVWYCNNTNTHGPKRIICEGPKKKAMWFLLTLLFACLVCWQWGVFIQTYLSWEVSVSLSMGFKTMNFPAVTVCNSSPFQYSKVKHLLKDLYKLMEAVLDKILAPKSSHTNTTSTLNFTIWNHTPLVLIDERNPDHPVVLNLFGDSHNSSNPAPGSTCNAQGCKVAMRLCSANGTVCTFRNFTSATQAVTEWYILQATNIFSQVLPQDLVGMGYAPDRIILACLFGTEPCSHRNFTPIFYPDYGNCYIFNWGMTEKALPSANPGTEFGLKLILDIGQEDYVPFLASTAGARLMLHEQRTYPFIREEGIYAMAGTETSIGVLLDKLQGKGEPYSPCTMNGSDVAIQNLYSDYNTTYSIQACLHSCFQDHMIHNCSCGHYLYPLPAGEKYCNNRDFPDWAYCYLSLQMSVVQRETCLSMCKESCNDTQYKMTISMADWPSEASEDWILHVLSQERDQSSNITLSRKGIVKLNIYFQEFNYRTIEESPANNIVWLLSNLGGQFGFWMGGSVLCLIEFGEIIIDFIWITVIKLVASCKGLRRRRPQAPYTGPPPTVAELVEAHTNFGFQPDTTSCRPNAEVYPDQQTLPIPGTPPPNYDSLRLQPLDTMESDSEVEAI
T1 sequence (P37091 1-650): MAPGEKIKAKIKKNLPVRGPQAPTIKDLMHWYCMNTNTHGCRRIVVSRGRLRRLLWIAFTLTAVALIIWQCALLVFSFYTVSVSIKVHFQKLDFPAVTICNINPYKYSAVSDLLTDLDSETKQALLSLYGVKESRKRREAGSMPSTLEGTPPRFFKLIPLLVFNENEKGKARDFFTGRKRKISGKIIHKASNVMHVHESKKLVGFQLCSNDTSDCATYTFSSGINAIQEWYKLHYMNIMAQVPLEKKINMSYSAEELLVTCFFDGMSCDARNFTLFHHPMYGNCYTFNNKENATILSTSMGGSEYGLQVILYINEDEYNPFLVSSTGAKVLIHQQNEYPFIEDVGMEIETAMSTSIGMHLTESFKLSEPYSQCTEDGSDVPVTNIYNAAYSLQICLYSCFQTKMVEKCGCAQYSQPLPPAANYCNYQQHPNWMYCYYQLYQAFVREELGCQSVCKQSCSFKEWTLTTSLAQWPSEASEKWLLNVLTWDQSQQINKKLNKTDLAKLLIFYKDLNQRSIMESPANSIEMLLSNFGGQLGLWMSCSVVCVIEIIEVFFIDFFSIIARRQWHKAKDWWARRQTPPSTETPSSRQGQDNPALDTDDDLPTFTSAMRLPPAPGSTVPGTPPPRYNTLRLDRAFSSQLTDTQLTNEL
Test: Western blot of ENaC cleavage by CAP2 in Xenopus oocytes
Assay type: cell-based
Details: αβγENaC, CAP2 and SPLUNC1 co-expressed in oocytes
Description: Xenopus oocytes were injected with either HA-N-Terminus or V5-C-Terminus (HA-NT/V5-CT) tagged subunits in combination with wild type (WT) untagged rat αβγENaC subunits (0.3 ng cRNA each) with or without V5-tagged SPLUNC1 and CAP2 (1 ng cRNA each). After 24 h, 40 eggs per experimental condition were lysed with buffer containing (in mM): 20 Tris, 50 NaCl, 50 NaF, 10 β-glycerophosphate, 5 Na4P2O7 pyrophosphate, 1 EDTA, pH 7.5 and protease inhibitors (complete, Roche), aprotinin (Sigma). Cell lysates were prepared by passing the eggs through a 27G1/2 needle twice and by centrifugation at 3,600 rpm for 10 minutes at 4° C. […]
Proteolytic cleavage of α and γ subunits is required for ENaC activation (Mueller et al., J. Biol. Chem. 282:33475 (2007); Adebamiro et al., J. Gen. Physiol. 130:611 (2007)) and since CAP2 is highly expressed in human bronchial epithelial cultures (Tarran et al., J. Gen. Physiol. 127:591 (2006)), we tested whether SPLUNC1 could alter α and γ ENaC cleavage by CAP2. Due to the relative scarcity of purified rSPLUNC1, we elected to co-express SPLUNC1 and ENaC rather than use rSPLUNC1 for subsequent oocyte studies since SPLUNC1 is secreted at sufficient quantities from oocytes to inhibit ENaC (FIG. 5). When αβγENaC and CAP2 were co-expressed in oocytes, both full-length ENaC subunits and cleaved α and γ fragments were detected with a V5 antibody (FIG. 7A, 7B). […]

B1: SPLUNC1: human SPLUNC1 (SEQ ID NO:1), 256 amino acid secreted PLUNC family protein; rSPLUNC1 is the purified V5/6His-tagged recombinant form (protein, listed as Homo sapiens)
chain: MFQTGGLIVFYGLLAQTMAQFGGLPVPLDQTLPLNVNPALPLSPTGLAGSLTNALSNGLLSGGLLGILENLPLLDILKPGGGTSGGLLGGLLGKVTSVIPGLNNIIDIKVTDPQLLELGLVQSPDGHRLYVTIPLGIKLQVNTPLVGASLLRLAVKLDITAEILAVRDKQERIHLVLGDCTHSPGSLQISLLDGLGPLPIQGLLDSLTGILNKVLPELVQGNVCPLVNEVLRGLDITLVHDIVNMLIHGLQFVIKV
modifications: V5/6His tag in recombinant form
notes: rSPLUNC1 is the purified V5/6His-tagged recombinant form
For B1, which “α and γ ENaC cleavage by CAP2” value is on record?
The value was “only full-length α and γ ENaC subunits could be observed”.

Source: patent US9127040B2, “Regulation of sodium channels by PLUNC proteins” (The University of North Carolina at Chapel Hill, priority 2011, dated 2015)
